# Patent publication US20040086945A1, “Hairless protein-interacting partner complexes and methods thereto” (The Procter & Gamble Company, priority 2002, published 2004)
# T1: mouse HRt (hairless protein aa 490-1182) (Mus musculus, UniProt Q61645)
# T1 construct: HR cDNA corresponding to the C-terminal half of HR protein (aa residues 490 to 1182, hereinafter HRt); expressed in transfected cells; host or cells: Saccharomyces cerevisiae PJ69-2A transformed with BD-HRt plasmid, mated with Y187 carrying the human brain cDNA library in pACT2
# T1 sequence (Q61645 490-1182): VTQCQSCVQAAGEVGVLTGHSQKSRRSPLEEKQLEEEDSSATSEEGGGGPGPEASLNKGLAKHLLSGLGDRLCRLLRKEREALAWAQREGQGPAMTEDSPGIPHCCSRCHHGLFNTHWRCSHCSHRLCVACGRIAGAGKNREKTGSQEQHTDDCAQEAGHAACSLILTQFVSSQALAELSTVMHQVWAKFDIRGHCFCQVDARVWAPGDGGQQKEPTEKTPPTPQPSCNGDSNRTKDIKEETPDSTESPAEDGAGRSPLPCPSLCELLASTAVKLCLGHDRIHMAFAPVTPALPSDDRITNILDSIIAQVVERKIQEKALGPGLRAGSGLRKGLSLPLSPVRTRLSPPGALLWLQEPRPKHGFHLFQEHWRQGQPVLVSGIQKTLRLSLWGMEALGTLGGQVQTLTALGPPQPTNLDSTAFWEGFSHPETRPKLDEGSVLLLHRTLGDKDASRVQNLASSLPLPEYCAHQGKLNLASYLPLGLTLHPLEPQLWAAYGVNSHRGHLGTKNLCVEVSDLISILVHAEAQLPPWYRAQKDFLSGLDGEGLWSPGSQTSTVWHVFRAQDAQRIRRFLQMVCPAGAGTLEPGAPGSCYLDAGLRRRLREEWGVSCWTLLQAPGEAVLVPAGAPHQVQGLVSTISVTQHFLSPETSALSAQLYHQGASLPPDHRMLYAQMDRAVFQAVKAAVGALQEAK
# Legend:
# Male C3H mice = experiment: Animal model for hair growth stimulation (HGS) activity; format: in vivo; details: applied daily for 17 days to shaved, Nair-treated back; day 17 compared to control treatment
# Description: Male C3H mice (˜42-48 days old and weighing ˜24 g) purchased from Harlan are acclimatized for 2 days and ˜2 cm^2 area on their back is shaved closely with an electric hair trimmer. To the shaved area, ˜300 μl of Nair lotion (NEW! Quick'n Easy 4 Minute Formula) is thinly smeared with a gloved fingertip for ˜30 sec. The area is wiped with Kimwipes for ˜15 sec and immediately washed under a gentle stream of lukewarm water for ˜50 sec and patted dry with Kimwipes. Test materials are applied (5 animals/test material) daily for 17 days. The shaved area is visually observed every day for anagen conversion and hair growth. Animal backs are photographed on day 8 and 17. In this model Triiodo thyronine (T3) has clear HGS activity (100% HGS activity), as evidenced by early onset of pigmentation and clear increase in hair length at day 17 compared to control treatment (60% ethanol, 20% propylene glycol and 20% Transcutol).
# [1] = molecular target: T1, mouse HRt (hairless protein aa 490-1182); experiment: Yeast two-hybrid screen of BD-HRt against human brain cDNA library in AD vector, lacZ coloration on QDO-Xgal plates; format: cell-based; details: BD-HRt(mouse) x human brain cDNA library in AD-vector
# Text: The present example provides for Hairless Protein (HR) interacting partners (HR-IP) using the yeast two-hybrid technology. […] Yeast cells expressing BD-HRt are mated with yeast cells pretransformed with human brain cDNA library in the activation domain (AD) vector.
# Cloning of HRt into GAL4 binding domain (BD) yeast two-hybrid (Y2H) vector: The HRt insert from pET32a-HRt is excised as an Eco RI-Xho I fragment (there is a unique Xho I site just adjacent to HRt insert) and inserted at the Eco RI-Sal I sites of Y2H-BD vector pGBKT7 (Catalog No. K1612-B; a component of Matchmaker two-hybrid System 3 (Catalog No. K1612-1) BD Biosciences Clontech, Palo Alto, Calif.) to obtain pGBKT7-HRt in which HRt is fused in-frame to GAL 4 DNA BD (this plasmid is also designated BD-HRt).
# Pretransformed human brain […] cDNA Library Screen for HRt interaction partners: Pretransformed human brain […] high-complexity GAL4 cDNA library that has already been amplified and introduced into yeast strain Y187 (MATα) is used to screen for HRt interacting proteins. […] The library host strain Y187 provides a third reporter gene (lacZ) for optional quantification of signal strength. The protocol as described in Clontech user manual (PT3183-1) is used. Briefly, the library is mixed with PJ69-2A strain that has been transformed with the BD-HRt plasmid in YPD medium containing adenine hemisulfate (0.004%) and kanamycin (0.005%) and incubated for 20-24 h at 30° C. The next day, the mating mixture is plated on Leu, Trp, His TDO that selects for two-hybrid interactions, and then the positive clones are screened for growth on Leu, Trp, His, Ade QDO, which is a more stringent condition for interaction. Colonies that grew well on QDO are also screened for lacZ expression by streaking on QDO-Xgal plates. Based on a visual assessment of colonies for the intensity of blue color, the clones are classified into high (H), medium (M), low (L) or very low (VL) categories.
# The positive clones are expected to contain an AD-IP (interacting partner) that interacts with BD-HRt. To characterize IP, the sequence of IP is determined and matched to the human genome database. For this purpose, total DNA is isolated from the positive clones and PCR amplified with […] AD LD (long distance)-insert screening amplimers (Catalog No.9103-1; BD Biosciences Clontech, PaloAlto, Calif.). Reaction is conducted in 50 μl volume for 35 cycles using the conditions recommended with the Advantage2 PCR kit (Catalog No. K1910-1; BD Biosciences Clontech, PaloAlto, Calif.).
Molecule,HGS activity (Male C3H mice),XGAL (rate and intensity of coloration of colonies on Xgal) [1]
N[C@@H](Cc1cc(I)c(Oc2ccc(O)c(I)c2)c(I)c1)C(=O)O [Triiodo thyronine],100%,
"Human neuronal membrane glycoprotein M6b1: human HRt interacting partner, GenBank AF016004, SEQ ID NO:56 (protein, UniProt Q13491 1-265, looked up) Neuronal membrane …: MKPAMETAAEENTEQSQERKGCFECCIKCLGGVPYASLVATILCFSGVALFCGCGHVALAGTVAILEQHFSTNASDHALLSEVIQLMQYVIYGIASFFFLYGIILLAEGFYTTSAVKELHGEFKTTACGRCISGMFVFLTYVLGVAWLGVFGFSAVPVFMFYNIWSTCEVIKSPQTNGTTGVEQICVDIRQYGIIPWNAFPGKICGSALENICNTNEFYMSYHLFIVACAGAGATVIALLIYMMATTYNYAVLKFKSREDCCTKF",,L (L = Low blue in 5-7 days)
"Human MDC15: human HRt interacting partner, GenBank U46005, SEQ ID NO:77 (protein, listed as Homo sapiens) LGLQWHADGRLTKKLNGLADLEACIKTLHGQGFSQPSLTTLTAFSVEGCLQEHCVILIQSW",,L (L = Low blue in 5-7 days)
"Human splicing factor (CC1.4): human HRt interacting partner, GenBank L10911, SEQ ID NO:59/60 (protein, listed as Homo sapiens) EFAAASTTAPVIIFVSKMFAVDAKALPQNKPRPLTQEEIAQRRERARQRHAEKLAAAQGQAPLEPTQDGSAIETCPKGEEPRGDEQQVESMTPKPVLQEENNQESFIAFARVFSGVARRGKKIFVLGPKYSPLEFLRRVPLGFSAPPDGLPQVPHMAYCALENLYLLMGRELEYLEEVPPGNVLGIGGLQDFVLKSATLCSLPSCPPFIPLNFEATPIVRVAVEPKHPSEMPQLVKG",,L/VL
"Human cDNA FLJ20109 fis clone COL05067: human HRt interacting partner, GenBank BC009472, SEQ ID NO:72/73 (protein, listed as Homo sapiens) VASPPVPCSAAFRSLHISVARDLKMRLHLLLLLALCGAGTTAAELSYSLRGNWSICNGNGSLELPGAVPGCVHSALFQ",,L (L = Low blue in 5-7 days)
"Human metallothionein from cadmium-treated cells: human HRt interacting partner, GenBank V00594, SEQ ID NO:3/4 (protein, listed as Homo sapiens) VPANPRATCPDSSRLFSSPWIPTAPAPPVTPAPAPAPANAKSANAPPARKAAAPAALWAVPSVPRAASAKGRRTSAAAAPDAGTAPLPDVKNATSTNLDFLCTTLTVTVCYIPFSMK",,H (H = Intense blue within 2-3 days)
"Human PACE4 (SPC4): human HRt interacting partner, GenBank AB001899, SEQ ID NO:69 (protein, UniProt P29122 150-969, looked up) Proprotein convertase …: QVRSDPQALYFNDPIWSNMWYLHCGDKNSRCRSEMNVQAAWKRGYTGKNVVVTILDDGIERNHPDLAPNYDSYASYDVNGNDYDPSPRYDASNENKHGTRCAGEVAASANNSYCIVGIAYNAKIGGIRMLDGDVTDVVEAKSLGIRPNYIDIYSASWGPDDDGKTVDGPGRLAKQAFEYGIKKGRQGLGSIFVWASGNGGREGDYCSCDGYTNSIYTISVSSATENGYKPWYLEECASTLATTYSSGAFYERKIVTTDLRQRCTDGHTGTSVSAPMVAGIIALALEANSQLTWRDVQHLLVKTSRPAHLKASDWKVNGAGHKVSHFYGFGLVDAEALVVEAKKWTAVPSQHMCVAASDKRPRSIPLVQVLRTTALTSACAEHSDQRVVYLEHVVVRTSISHPRRGDLQIYLVSPSGTKSQLLAKRLLDLSNEGFTNWEFMTVHCWGEKAEGQWTLEIQDLPSQVRNPEKQGKLKEWSLILYGTAEHPYHTFSAHQSRSRMLELSAPELEPPKAALSPSQVEVPEDEEDYTAQSTPGSANILQTSVCHPECGDKGCDGPNADQCLNCVHFSLGSVKTSRKCVSVCPLGYFGDTAARRCRRCHKGCETCSSRAATQCLSCRRGFYHHQEMNTCVTLCPAGFYADESQKNCLKCHPSCKKCVDEPEKCTVCKEGFSLARGSCIPDCEPGTYFDSELIRCGECHHTCGTCVGPGREECIHCAKNFHFHDWKCVPACGEGFYPEEMPGLPHKVCRRCDENCLSCAGSSRNCSRCKTGFTQLGTSCITNHTCSNADETFCEMVKSNRLCERKLFIQFCCRTCLLAG",,L (L = Low blue in 5-7 days)
"Human […]-mannosidase: human HRt interacting partner, GenBank U60337, SEQ ID NO:80/81 (protein, UniProt O00462 18-879, looked up) Beta-mannosidase: AAELSYSLRGNWSICNGNGSLELPGAVPGCVHSALFQQGLIQDSYYRFNDLNYRWVSLDNWTYSKEFKIPFEISKWQKVNLILEGVDTVSKILFNEVTIGETDNMFNRYSFDITNVVRDVNSIELRFQSAVLYAAQQSKAHTRYQVPPDCPPLVQKGECHVNFVRKEQCSFSWDWGPSFPTQGIWKDVRIEAYNICHLNYFTFSPIYDKSAQEWNLEIESTFDVVSSKPVGGQVIVAIPKLQTQQTYSIELQPGKRIVELFVNISKNITVETWWPHGHGNQTGYNMTVLFELDGGLNIEKSAKVYFRTVELIEEPIKGSPGLSFYFKINGFPIFLKGSNWIPADSFQDRVTSELLRLLLQSVVDANMNTLRVWGGGIYEQDEFYELCDELGIMVWQDFMFACALYPTDQGFLDSVTAEVAYQIKRLKSHPSIIIWSGNNENEEALMMNWYHISFTDRPIYIKDYVTLYVKNIRELVLAGDKSRPFITSSPTNGAETVAEAWVSQNPNSNYFGDVHFYDYISDCWNWKVFPKARFASEYGYQSWPSFSTLEKVSSTEDWSFNSKFSLHRQHHEGGNKQMLYQAGLHFKLPQSTDPLRTFKDTIYLTQVMQAQCVKTETEFYRRSRSEIVDQQGHTMGALYWQLNDIWQAPSWASLEYGGKWKMLHYFAQNFFAPLLPVGFENENTFYIYGVSDLHSDYSMTLSVRVHTWSSLEPVCSRVTERFVMKGGEAVCLYEEPVSELLRRCGNCTRESCVVSFYLSADHELLSPTNYHFLSSPKEAVGLCKAQITAIISQQGDIFVFDLETSAVAPFVWLDVGSIPGRFSDNGFLMTEKTRTILFYPWEPTSKNELEQSFHVTSLTDIY",,L (L = Low blue in 5-7 days)
